In article PMC6420074 (Nature metabolism, 2019):

How the values were obtained:
[1] = biological target: T1, extracellular domain of Tfr2 (Tfr2-ECD), recombinant His-MBP-c3-Tfr2-ECD (murine, UniProt Q9JKX3 103-798); assay: SPR
T1 sequence: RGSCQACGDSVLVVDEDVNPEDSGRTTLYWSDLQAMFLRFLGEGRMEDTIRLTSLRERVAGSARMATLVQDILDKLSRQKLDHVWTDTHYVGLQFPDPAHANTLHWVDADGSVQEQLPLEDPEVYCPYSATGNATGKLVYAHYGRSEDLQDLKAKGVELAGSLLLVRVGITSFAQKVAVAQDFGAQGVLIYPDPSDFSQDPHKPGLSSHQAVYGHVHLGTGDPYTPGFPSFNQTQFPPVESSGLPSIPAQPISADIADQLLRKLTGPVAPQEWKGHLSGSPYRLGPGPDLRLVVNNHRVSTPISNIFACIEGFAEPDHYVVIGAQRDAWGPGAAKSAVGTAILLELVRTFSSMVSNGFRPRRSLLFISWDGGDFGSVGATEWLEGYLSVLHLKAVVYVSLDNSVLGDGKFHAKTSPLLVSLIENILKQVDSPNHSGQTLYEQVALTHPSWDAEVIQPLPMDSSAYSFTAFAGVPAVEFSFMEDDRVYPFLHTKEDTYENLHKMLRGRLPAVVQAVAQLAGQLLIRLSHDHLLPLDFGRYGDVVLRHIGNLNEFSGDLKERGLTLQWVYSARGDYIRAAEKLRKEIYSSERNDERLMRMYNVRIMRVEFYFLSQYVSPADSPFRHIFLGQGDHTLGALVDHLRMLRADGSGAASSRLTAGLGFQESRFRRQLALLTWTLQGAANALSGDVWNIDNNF

[2] = biological target: T1, extracellular domain of Tfr2 …; assay: SPR; remark: listed apart in the source

B1: BMP-2 (ligand)
chain: QAKHKQRKRLKSSCKRHPLYVDFSDVGWNDWIVAPPGYHAFYCHGECPFPLADHLNSTNHAIVQTLVNSVNSKIPKACCVPTELSAISMLYLDENEKVVLKNYQDMVVEGCGCR
B1 was tested, and the Kd [1] was 488 ± 37 nM and the “fold binding level against holo-Tf” value [2] was > 10 fold.

B2: BMP-4 (ligand)
chain: SPKHHSQRARKKNKNCRRHSLYVDFSDVGWNDWIVAPPGYQAFYCHGDCPFPLADHLNSTNHAIVQTLVNSVNSSIPKACCVPTELSAISMLYLDEYDKVVLKNYQEMVVEGCGCR
Work on B2 yielded a Kd [1] of 409 ± 39 nM.
